Assay results taken from IntAct's records for PubMed 18086875.

What was measured:
fak2_human PTK2B [1] = target: fak2_human PTK2B (UniProt Q14289)
pak1_human PAK1 = pak1_human PAK1 (UniProt Q13153)
fak1_human PTK2 = fak1_human PTK2 (UniProt Q05397)
fak2_human PTK2B [2] = target: fak2_human PTK2B (UniProt Q14289); remark: listed apart in the source

Chain of fak2_human PTK2B (Q14289 whole entry, looked up): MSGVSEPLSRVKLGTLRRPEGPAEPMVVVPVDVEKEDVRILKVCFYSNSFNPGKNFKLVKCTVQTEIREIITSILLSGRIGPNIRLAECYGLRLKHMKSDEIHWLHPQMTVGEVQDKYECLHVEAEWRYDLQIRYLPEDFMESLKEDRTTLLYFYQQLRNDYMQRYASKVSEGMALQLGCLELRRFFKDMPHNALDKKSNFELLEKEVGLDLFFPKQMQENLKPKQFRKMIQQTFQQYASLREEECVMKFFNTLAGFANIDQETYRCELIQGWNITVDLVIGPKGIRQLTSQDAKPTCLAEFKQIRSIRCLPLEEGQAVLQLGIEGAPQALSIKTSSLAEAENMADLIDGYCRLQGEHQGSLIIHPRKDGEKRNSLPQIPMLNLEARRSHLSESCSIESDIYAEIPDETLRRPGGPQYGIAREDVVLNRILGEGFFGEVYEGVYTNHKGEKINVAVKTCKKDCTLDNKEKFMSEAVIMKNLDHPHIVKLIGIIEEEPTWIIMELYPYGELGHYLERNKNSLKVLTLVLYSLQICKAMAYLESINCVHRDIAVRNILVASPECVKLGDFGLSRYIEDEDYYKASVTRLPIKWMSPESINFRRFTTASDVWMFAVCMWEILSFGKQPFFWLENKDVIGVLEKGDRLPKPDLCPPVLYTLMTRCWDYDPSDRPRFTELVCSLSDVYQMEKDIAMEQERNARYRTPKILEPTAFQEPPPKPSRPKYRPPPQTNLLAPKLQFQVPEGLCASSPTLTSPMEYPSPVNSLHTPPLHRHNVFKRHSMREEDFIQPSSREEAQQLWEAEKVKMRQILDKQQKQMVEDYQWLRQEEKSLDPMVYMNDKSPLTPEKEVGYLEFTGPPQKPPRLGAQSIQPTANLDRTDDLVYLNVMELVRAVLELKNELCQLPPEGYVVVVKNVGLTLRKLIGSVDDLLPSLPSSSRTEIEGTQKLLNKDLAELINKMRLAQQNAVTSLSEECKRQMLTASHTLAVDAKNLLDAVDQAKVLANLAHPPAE
Chain of fak1_human PTK2 (Q05397 whole entry, looked up): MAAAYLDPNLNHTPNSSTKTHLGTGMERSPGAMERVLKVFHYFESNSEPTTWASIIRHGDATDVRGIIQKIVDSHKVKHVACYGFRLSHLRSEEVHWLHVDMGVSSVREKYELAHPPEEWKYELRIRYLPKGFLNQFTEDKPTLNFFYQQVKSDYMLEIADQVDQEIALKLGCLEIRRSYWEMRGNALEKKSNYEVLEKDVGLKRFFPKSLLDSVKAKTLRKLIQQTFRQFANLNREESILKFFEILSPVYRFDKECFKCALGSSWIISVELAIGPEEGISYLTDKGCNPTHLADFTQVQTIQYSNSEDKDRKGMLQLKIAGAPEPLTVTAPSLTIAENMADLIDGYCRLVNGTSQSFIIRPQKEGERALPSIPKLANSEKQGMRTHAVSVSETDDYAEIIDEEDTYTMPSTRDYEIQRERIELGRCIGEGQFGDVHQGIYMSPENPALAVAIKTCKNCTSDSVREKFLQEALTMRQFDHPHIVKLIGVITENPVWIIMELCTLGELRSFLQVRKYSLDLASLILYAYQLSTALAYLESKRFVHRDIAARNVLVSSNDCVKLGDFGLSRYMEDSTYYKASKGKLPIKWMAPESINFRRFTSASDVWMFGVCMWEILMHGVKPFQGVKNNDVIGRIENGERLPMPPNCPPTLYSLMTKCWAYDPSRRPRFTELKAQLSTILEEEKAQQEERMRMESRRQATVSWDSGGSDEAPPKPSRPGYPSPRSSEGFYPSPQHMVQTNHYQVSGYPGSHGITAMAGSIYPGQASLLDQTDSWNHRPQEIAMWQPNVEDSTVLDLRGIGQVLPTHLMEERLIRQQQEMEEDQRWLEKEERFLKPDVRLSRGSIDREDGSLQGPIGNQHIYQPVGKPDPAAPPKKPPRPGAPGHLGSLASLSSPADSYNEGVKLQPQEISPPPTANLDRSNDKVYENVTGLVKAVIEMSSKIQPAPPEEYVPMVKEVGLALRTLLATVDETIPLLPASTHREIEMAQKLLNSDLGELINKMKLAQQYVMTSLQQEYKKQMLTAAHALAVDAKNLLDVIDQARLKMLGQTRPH
Chain of pak1_human PAK1 (Q13153 whole entry): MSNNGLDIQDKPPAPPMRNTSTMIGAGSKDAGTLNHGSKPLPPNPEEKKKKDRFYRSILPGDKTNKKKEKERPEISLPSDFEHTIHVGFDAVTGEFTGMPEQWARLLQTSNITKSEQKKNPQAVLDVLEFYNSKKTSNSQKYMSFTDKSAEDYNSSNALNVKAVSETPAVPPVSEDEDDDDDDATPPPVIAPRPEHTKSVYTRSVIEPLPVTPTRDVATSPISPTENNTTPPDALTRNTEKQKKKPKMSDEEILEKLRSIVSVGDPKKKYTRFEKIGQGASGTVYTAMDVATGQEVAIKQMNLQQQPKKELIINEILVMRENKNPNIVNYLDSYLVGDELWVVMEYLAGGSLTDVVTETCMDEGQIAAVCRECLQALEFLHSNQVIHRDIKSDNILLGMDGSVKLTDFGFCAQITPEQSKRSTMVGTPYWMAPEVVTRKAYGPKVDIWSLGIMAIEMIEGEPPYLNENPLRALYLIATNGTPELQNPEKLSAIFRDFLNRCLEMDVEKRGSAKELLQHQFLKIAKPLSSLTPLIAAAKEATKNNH
Chain of Rho-related GTP-binding protein RhoU (Homo sapiens), Q7L0Q8 F86C (Q7L0Q8 whole entry F86C): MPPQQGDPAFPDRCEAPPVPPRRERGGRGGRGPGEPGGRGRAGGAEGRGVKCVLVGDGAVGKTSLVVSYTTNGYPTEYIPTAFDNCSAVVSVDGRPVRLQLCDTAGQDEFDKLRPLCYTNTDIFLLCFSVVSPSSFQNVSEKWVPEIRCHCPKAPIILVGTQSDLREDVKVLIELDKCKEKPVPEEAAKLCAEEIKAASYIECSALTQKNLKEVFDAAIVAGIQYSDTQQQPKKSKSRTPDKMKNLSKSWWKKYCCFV

Substance | effect of a mutation on the interaction (fak2_human PTK2B [1]) | effect of a mutation on the interaction (pak1_human PAK1) | effect of a mutation on the interaction (fak1_human PTK2) | effect of a mutation on the interaction (fak2_human PTK2B [2])
Rho-related GTP-binding protein RhoU (Homo sapiens), Q7L0Q8 F83G | disrupting interaction |  |  | 
Rho-related GTP-binding protein RhoU (Homo sapiens), Q7L0Q8 Q107L |  |  | decreasing interaction | 

Further lines, results first:

effect of a mutation on the interaction (fak2_human PTK2B [1]) | effect of a mutation on the interaction (pak1_human PAK1) | effect of a mutation on the interaction (fak1_human PTK2) | effect of a mutation on the interaction (fak2_human PTK2B [2]) | Substance
disrupting interaction | decreasing interaction |  |  | Rho-related GTP-binding protein RhoU (Homo sapiens), Q7L0Q8 F86C
disrupting interaction | decreasing interaction |  |  | Rho-related GTP-binding protein RhoU (Homo sapiens), Q7L0Q8 P80G
 |  | decreasing interaction | disrupting interaction | Rho-related GTP-binding protein RhoU (Homo sapiens), Q7L0Q8 T63N
